Data set [1] has as its target T1, MBP-BES1, full-length BES1 (BRI1 EMS SUPPRESSOR 1) (Arabidopsis, UniProt Q9LN63 1-335).
T1 construct: BES1 (BRI1 EMS SUPPRESSOR 1), BES1/BZR1 family transcription factor of Arabidopsis, full length; also called BES1 FL; source: recombinant protein, purified; pETMALc-H
T1 sequence (looked up): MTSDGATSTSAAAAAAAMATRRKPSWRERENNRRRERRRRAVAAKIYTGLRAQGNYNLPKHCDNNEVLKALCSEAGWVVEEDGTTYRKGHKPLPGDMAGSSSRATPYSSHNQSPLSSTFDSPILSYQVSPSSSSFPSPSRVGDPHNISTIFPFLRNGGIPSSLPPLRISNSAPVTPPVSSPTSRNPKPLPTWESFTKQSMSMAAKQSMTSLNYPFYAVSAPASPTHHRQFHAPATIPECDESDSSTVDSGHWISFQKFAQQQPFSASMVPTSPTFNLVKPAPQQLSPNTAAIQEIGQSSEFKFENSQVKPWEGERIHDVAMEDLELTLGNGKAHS
The experiment in a line: pull-down; GST pull-down; GST-tagged RD26 (full length or 1-140) or GST as bait, MBP-tagged BES1 (full length or 1-89) as prey; MBP-BES1 detected by anti-MBP antibody; 20% input shown. The following applies: both partners purified.

The target of data set [2] is BES1 (Arabidopsis thaliana, UniProt Q9LN63 1-335). The experiment in a line: EMSA; 25 mM HEPES-KOH pH 8.0, 1 mM DTT, 50 mM KCl, 10% glycerol, 20 μl, about 0.2 ng probe, 40 min on ice; 5% native PAGE in 1x TGE. The conditions noted are these: protein: recombinant; chain copies: 2; label: 32P 5' end; blunt.
Data set [3] deals with T2, BES1;RD26 (ANAC072) (Arabidopsis thaliana;Arabidopsis …, UniProt Q9LN63;Q93VY3 1-335;1-297, |). The description is as above. The following applies: protein: recombinant;recombinant; copies: 1;1; label: 32P 5' end; blunt.
In data set [4] the target is T3, RD26 (ANAC072) (Arabidopsis thaliana, UniProt Q93VY3 1-297).
T3 sequence: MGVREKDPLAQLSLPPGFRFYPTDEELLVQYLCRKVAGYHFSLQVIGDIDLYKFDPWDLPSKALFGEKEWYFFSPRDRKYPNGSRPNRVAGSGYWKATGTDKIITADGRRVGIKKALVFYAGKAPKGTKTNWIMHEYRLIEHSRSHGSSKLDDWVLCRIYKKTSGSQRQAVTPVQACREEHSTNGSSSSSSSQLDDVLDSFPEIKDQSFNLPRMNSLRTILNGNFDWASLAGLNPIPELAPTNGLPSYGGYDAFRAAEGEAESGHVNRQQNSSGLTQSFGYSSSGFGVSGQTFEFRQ
Described as above. The following applies: protein: recombinant; chain copies: 2; label: 32P 5' end; blunt.

Data set [5] concerns the target T4, GST-tagged RD26 DNA-binding/dimerization domain (aa 1-140) (Arabidopsis, UniProt Q93VY3 1-140).
T4 construct: also called RD26 (1-140); source: recombinant protein, purified; pET-42a (Novagen)
T4 sequence (looked up): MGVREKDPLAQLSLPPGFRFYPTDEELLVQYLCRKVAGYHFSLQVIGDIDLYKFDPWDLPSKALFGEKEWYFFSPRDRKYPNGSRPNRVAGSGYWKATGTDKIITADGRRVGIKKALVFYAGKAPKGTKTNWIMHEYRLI
Nature of the data set: pull-down; GST pull-down; GST-tagged RD26 (full length or 1-140) or GST as bait, MBP-tagged BES1 (full length or 1-89) as prey; MBP-BES1 detected by anti-MBP antibody; 20% input shown. The following applies: both partners purified.

Data set [6] concerns the target T2, BES1;RD26 (ANAC072). Nature of the data set: EMSA; synergistic; proposed heterodimer; 25 mM HEPES-KOH pH 8.0, 1 mM DTT, 50 mM KCl, 10% glycerol, 20 μl, about 0.2 ng probe, 40 min on ice; 5% native PAGE in 1x TGE. The following applies: protein: recombinant;recombinant; copies: 1;1; label: 32P 5' end; blunt.
Data set [7] deals with T2, BES1;RD26 (ANAC072). The experiment in a line: EMSA; stronger than either protein alone; proposed heterodimer; 25 mM HEPES-KOH pH 8.0, 1 mM DTT, 50 mM KCl, 10% glycerol, 20 μl, about 0.2 ng probe, 40 min on ice; 5% native PAGE in 1x TGE. The conditions noted are these: protein: recombinant;recombinant; copies: 1;1; label: 32P 5' end; blunt.

B1: GST-RD26, full-length RD26 (RESPONSIVE TO …ON 26) (natural protein, Arabidopsis, UniProt Q93VY3 1-297, looked up)
chain: T3 sequence
notes: RD26 (ANAC072), NAC family transcription factor of Arabidopsis, full length; also called ANAC072; RD26 FL; source: recombinant protein, purified; pET-42a (Novagen)
As for B1, the binding result in data set [1] was “binds”.

B2: At4g18010 BRRE MU (dsDNA)
DNA 1: AAACCGAAAACATTTTTTAGAAAGAAGAAA
DNA 2: TTTCTTCTTTCTAAAAAATGTTTTCGGTTT
For B2, the binding result in data set [2], in data set [3] and in data set [4] was “no binding” in each case.

B3: MBP-tagged BES1 DNA-binding/dimerization domain (aa 1-89) (domain or fragment, Arabidopsis, UniProt Q9LN63 1-89, looked up)
chain: MTSDGATSTSAAAAAAAMATRRKPSWRERENNRRRERRRRAVAAKIYTGLRAQGNYNLPKHCDNNEVLKALCSEAGWVVEEDGTTYRKG
notes: also called BES1 (1-89); source: recombinant protein, purified; pETMALc-H
For B3, the binding result in data set [5] is “binds”.

B4: At4g00360 E-box WT (dsDNA)
DNA 1: ATTACCTAACTATACATGTGTAATGTGTTC
DNA 2: GAACACATTACACATGTATAGTTAGGTAAT
B4: the binding result in data set [2], in data set [4] and in data set [6] was “binds” throughout.

B5: At4g00360 E-box MU (dsDNA)
DNA 1: ATTACCTAACTATAAAAAAATAATGTGTTC
DNA 2: GAACACATTATTTTTTTATAGTTAGGTAAT
As for B5, in data set [3], the binding result is on record as “no binding”.

B6: At4g18010 BRRE WT (dsDNA)
DNA 1: AAACCGAAAACACGTGTGAGAAAGAAGAAA
DNA 2: TTTCTTCTTTCTCACACGTGTTTTCGGTTT
Consider B6, for which the binding result in data set [2] and in data set [7] was “binds” in each case.

Values taken from PMC5333127, “RD26 mediates crosstalk between drought and brassinosteroid signalling pathways” (Nature Communications, 2017).
